Data: US20210214458A1 (ONCOC4, published 2021)

T1: N-SA-CD24 (CD24 stripped of N-glycan and sialic acid modifications) (not fully specified; N-glycans and sialic acid removed; O-glycans present; biotinylated in the Jurkat bispecific assays)
T1 construct: also called SA-N-CD24; SA-N-
T1 chain: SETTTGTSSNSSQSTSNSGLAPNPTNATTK


Tests used:
CD24-GST fusion protein = biological target: T2, CD24-GST fusion protein; experiment: ELISA on coated CD24-GST with expression media, relative to chimeric PP6373 (FIG. 28)
T2 construct: also called biotinylated CD24-GST; not shown: GST (glutathione S-transferase) fusion partner
Description: To select the best working combination of HuVH and HuVL for CD24 binding, different combinations were co-transfected into 293 cells for 72 hrs. Two ELISAs are then performed with expression media. ELISA 1: a 96 well plate was coated with purified goat-anti-human polyclonal IgG (GAH) and, after blocking, expression media or purified control IgGs were added, and goat-anti-human IgG-HRP was used as detection antibody. ELISA 2: a 96 well plate was coated with CD24-GST protein and, after blocking, expression media or purified control IgGs were added, and goat-anti-human IgG-HRP was used as detection antibody.

[1] = biological target: T1, N-SA-CD24 (CD24 stripped of N-glycan …); experiment: ELISA titration on coated Fc removed CD24 treated with NanA + N-glycanase (FIG. 8)

binding result (CD24-GST fusion protein) | fold increase of binding against the parental antibody [1] [fold] | Binder
binds | – | H1L3 (humanized PP6373) (antibody, V domains shown, Tested as expression medium of co-transfected 293 cells) VH: EVQFVESGGGLVQPGGSLKLSCAASGVTFSEAWMDWVRQASGKGLEWVGEIRDKPNSYVTYYAESVKGRFTISRDDSKNTAYLQMNSLKTEDTAVYYCTGAMDYWGQGTLVTVSS VL: DIVMTQTPLSLSVTIGQPASISCKSSQSLLYSNGKTYLNWLLQKPGQSPKRLIYQVSKLDPGIPDRFSGSGSETDFTLKISRVEAEDVGIYYCMQGSSLPWTFGGGTKVEIKR
– | ~100 | PP6373 (affinity matured chimeric anti-CD24 antibody) (antibody, human IgG1, kappa, V domains shown, also called P3050.ComF1.2H1; H4069 + L4071) VH: EVKFEESGGGLVQPGGSIKLSCAASGVTFSEAWMDWVRQSPEKGLEWVAEIRDKPNSYVTYYAESVKGRFTISRDDSKSRVYLQMNNLRTEDTGIYYCTGAMDYWGQGTSVTVSS VL: DIVMTQTPLSLSVTIGQPASISCKSSQSLLYSNGKTYLNWLQQRPGQSPKRLIYQVSKLDPGIPDRFSGSGSETDFTLKISRVEAEDLGIYYCMQGSSLPWTFGGGTKLEIKR
binds | – | H4L3 (humanized PP6373) (antibody, V domains shown, Tested as expression medium of co-transfected 293 cells) VH: EVQFVESGGGLVQPGGSLKLSCAASGVTFSEAWMDWVRQASGKGLEWVAEIRDKPNSYVTYYAESVKGRFTISRDDSKSTVYLQMNSLKTEDTAIYYCTGAMDYWGQGTLVTVSS VL: DIVMTQTPLSLSVTIGQPASISCKSSQSLLYSNGKTYLNWLLQKPGQSPKRLIYQVSKLDPGIPDRFSGSGSETDFTLKISRVEAEDVGIYYCMQGSSLPWTFGGGTKVEIKR
